B1: Dynamin-Related Protein 1 (Drp1), endogenous in LPS-primed primary microglia (natural protein, UniProt Q8K1M6 1-736, looked up)
chain: MEALIPVINKLQDVFNTVGADIIQLPQIVVVGTQSSGKSSVLESLVGRDLLPRGTGVVTRRPLILQLVHVSPEDKRKTTGEENGVEAEEWGKFLHTKNKLYTDFDEIRQEIENETERISGNNKGVSPEPIHLKVFSPNVVNLTLVDLPGMTKVPVGDQPKDIELQIRELILRFISNPNSIILAVTAANTDMATSEALKISREVDPDGRRTLAVITKLDLMDAGTDAMDVLMGRVIPVKLGIIGVVNRSQLDINNKKSVTDSIRDEYAFLQKKYPSLANRNGTKYLARTLNRLLMHHIRDCLPELKTRINVLAAQYQSLLNSYGEPVDDKSATLLQLITKFATEYCNTIEGTAKYIETSELCGGARICYIFHETFGRTLESVDPLGGLNTIDILTAIRNATGPRPALFVPEVSFELLVKRQIKRLEEPSLRCVELVHEEMQRIIQHCSNYSTQELLRFPKLHDAIVEVVTCLLRKRLPVTNEMVHNLVAIELAYINTKHPDFADACGLMNNNIEEQRRNRLARELPSAGSRDKSSKVPSALAPASQEPPPAASAEADGKLIQDNRRETKNVPSAGGGIGDGGQEPTTGNWRGMLKTSKAEELLAEEKSKPIPIMPASPQKGHAVNLLDVPVPVARKLSAREQRDCEVIERLIKSYFLIVRKNIQDSVPKAVMHFLVNHVKDTLQSELVGQLYKSSLLDDLLTESEDMAQRRKEAADMLKALQGASQIIAEIRETHLW
notes: Dynamin-Related Protein 1 (Drp1), endogenous in primary microglia; Precipitated with an anti-Drp1 antibody; seen as tetramer on a native gel; Mouse is only surmised for the primary microglia; see the supplementary methods; source: endogenous, LPS-primed primary microglia lysate
B2: Dynamin-Related Protein 1 (Drp1), endogenous in mouse hippocampus (natural protein, UniProt Q8K1M6 1-736, looked up)
chain: B1 chain
notes: Dynamin-Related Protein 1 (Drp1), mouse, endogenous in the hippocampus of 5xFAD mice; Tetramer seen on a native gel; source: endogenous, hippocampus of 5xFAD mice

Tests used:
[1] = target: the molecule itself; experiment: native gel or EMSA; western blot of native gel of Drp1 tetramer in LPS-primed primary microglia, without and with 4 h of Aβ dimers
[2] = target: the molecule itself; experiment: native gel or EMSA; western blot of native gel of DRP1 tetramer in hippocampus of wt and 5xFAD mice (also with siTXNIP)

| Protein | stoichiometry N [1] | stoichiometry N [2] |
| --- | --- | --- |
| B1 | 4 | – |
| B2 | – | 4 |

— PMC8980056, “RAGE-TXNIP axis drives inflammation in Alzheimer’s by targeting Aβ to mitochondria in microglia” (Cell Death & Disease, 2022)
